Source: patent US20040086503A1 (Amgen, published 2004)
One block for each binder: values may come before it.

Key:
human IGF-IR on cells [1] = target: T1, human IGF-IR on cells (human, UniProt P08069 31-1367); test: cell-based or functional assay
canine IGF-IR = target: T2, canine IGF-IR (canine, UniProt A0A8I3MER7 10-1344); test: immunoprecipitation and Western blot on cells
T2 construct: whole, on cells
Description: (§1) The samples prepared as described above were then analyzed by Western blot. We loaded 12 μl of each sample per lane on 4-10% gradient Novex™ gels run with 1× MES buffer (Novex™). Gels were run at 150V for 1 hour or at 200V for approximately 30 minutes. We then transferred the gel to a membrane in Novex™ transfer buffer with 10% methanol either overnight at 100 mA or for 1-1.5 hours at 250 mA. We then allowed the membrane to dry completely and blocked at room temperature with TBS (Tris-buffered saline pH 8.0) containing Superblock (Pierce Chemical Co.). We added the IGF-IR blotting antibody SC713 (Santa Cruz) to detect immunoprecipitated IGF-IR.

guinea pig IGF-IR = guinea pig IGF-IR (guinea pig, UniProt H0V5D0 31-736; H0V5D0 741-1367); test: immunoprecipitation and Western blot on cells
Description: as §1

rabbit IGF-IR = target: T3, rabbit IGF-IR (rabbit, UniProt G1TLR2 31-1366); test: immunoprecipitation and Western blot on cells
T3 construct: whole, on cells
Description: as §1

human IGF-IR on cells [2] = target: T1, human IGF-IR on cells; test: inhibition of [125I]-IGF-I binding to IGF-IR-transfected NIH-3T3 cells
Description: We plated IGF-IR-transfected NIH-3T3 cells (5×10⁴/ml) in 100 μl of DMEM high glucose media supplemented with L-glutamine (0.29 mg/ml), 10% heat-inactivated FBS, and 500 μg/ml each of geneticin, penicillin and streptomycin in 96-well U-bottom plates. We then incubated the plates at 37° C., 5% CO₂ overnight to allow cells to attach. We then decanted the media from the plates and replaced it with 100 μl fresh media per well. For testing, we diluted antibodies in assay media (DMEM high glucose media supplemented with L-glutamine, 10% heat-inactivated FBS, 200 μg/ml BSA and 500 μg/ml each of geneticin, penicillin and streptomycin) to the desired final concentration and added 50 μl per well. All samples were performed in triplicate. We then incubated the plates at 37° C. for ten minutes. […] We incubated the plates for 10 minutes at 37° C., decanted the media by blotting gently onto paper towels and washed twice with assay media. We then lysed the cells by adding 50 μl 0.1 N NaOH, 0.1% SDS and shaking the plates for five minutes at room temperature. We then transferred the samples to a scintillation plate, added 150 μl OptiPhase Supermix and read the signal on a Wallac Micro-Beta counter.

COS7 IGF-IR = COS7 IGF-IR (old world monkey (COS7 cells)); test: cell-based or functional assay
Rhesus IGF-IR = Rhesus IGF-IR (rhesus, UniProt I2CWY3 31-736; I2CWY3 741-1367); test: cell-based or functional assay
cynomologous IGF-IR = target: T4, cynomologous IGF-IR (cynomologous); test: flow cytometry, biotinylated antibody on cynomologous cells, streptavidin-RPE
T4 construct: whole, on cells; also called IGF-IR of cynomologous cells
Description: We performed FACS analysis to determine the affinity of the antibodies of the invention for IGF-IR from other animals, particularly the old world monkeys described above. We incubated aliquots of human and monkey cells (5×10⁵) for 1 hour on ice with increasing concentrations of biotinylated anti-IGF-IR antibodies of the invention or with a biotinylated anti-keyhole limpet hemocyanin (KLH) antibody (Abgenix) as a negative control. We then incubated the samples for 30 minutes on ice with steptavidin-conjugated RPE (phycoerythrin). We measured binding by flow cytometry and analyzed the histograms of fluorescence intensity (Fl2-H) versus cell number (Counts) using CellQuest software. We calculated binding (Kd) for each antibody from graphs of mean fluorescence intensity versus antibody concentration. In most experiments, we measured binding in cultured human MCF-7 cells and either rhesus or cynomologous tissue culture cells. We controlled for depletion of the antibody by measuring binding over a range of cell concentrations.

Chain of guinea pig IGF-IR (alpha, as listed by the source limits assumed, chain 1 of 2): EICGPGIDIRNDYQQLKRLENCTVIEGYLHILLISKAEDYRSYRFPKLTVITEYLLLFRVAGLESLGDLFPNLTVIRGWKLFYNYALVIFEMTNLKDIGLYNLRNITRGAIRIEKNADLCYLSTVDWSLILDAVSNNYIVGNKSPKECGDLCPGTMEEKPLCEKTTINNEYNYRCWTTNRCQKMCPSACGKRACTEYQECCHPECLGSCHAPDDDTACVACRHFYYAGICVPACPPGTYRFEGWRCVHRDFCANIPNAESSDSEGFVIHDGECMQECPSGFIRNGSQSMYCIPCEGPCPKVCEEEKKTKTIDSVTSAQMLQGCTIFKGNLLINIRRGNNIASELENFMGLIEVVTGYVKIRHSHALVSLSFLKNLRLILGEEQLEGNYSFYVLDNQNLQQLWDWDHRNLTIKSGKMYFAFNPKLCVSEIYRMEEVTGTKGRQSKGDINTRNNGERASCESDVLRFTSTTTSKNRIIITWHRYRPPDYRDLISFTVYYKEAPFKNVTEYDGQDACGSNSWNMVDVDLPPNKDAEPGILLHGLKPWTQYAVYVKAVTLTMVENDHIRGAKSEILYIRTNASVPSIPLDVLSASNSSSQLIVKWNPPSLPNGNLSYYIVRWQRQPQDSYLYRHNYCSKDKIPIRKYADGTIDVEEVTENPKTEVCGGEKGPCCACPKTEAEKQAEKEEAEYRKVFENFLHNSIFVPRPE
Chain of guinea pig IGF-IR (beta, as listed by the source limits assumed, chain 2 of 2): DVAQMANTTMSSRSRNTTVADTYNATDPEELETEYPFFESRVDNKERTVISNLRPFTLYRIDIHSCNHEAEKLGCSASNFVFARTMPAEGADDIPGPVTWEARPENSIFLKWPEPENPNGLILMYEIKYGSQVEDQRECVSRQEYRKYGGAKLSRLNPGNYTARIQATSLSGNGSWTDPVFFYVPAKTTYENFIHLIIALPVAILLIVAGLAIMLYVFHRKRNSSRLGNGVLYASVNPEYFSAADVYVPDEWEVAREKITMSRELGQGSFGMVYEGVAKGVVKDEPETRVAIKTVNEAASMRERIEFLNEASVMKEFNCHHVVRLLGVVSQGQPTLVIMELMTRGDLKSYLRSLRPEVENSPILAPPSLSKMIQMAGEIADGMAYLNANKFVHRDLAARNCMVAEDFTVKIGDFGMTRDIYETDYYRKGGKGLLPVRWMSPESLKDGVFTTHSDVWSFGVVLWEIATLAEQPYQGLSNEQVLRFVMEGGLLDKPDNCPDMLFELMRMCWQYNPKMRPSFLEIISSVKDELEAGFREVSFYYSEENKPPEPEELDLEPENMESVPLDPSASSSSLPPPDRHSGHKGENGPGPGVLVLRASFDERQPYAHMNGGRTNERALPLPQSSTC
T2 sequence (A0A8I3MER7 entry or part of it): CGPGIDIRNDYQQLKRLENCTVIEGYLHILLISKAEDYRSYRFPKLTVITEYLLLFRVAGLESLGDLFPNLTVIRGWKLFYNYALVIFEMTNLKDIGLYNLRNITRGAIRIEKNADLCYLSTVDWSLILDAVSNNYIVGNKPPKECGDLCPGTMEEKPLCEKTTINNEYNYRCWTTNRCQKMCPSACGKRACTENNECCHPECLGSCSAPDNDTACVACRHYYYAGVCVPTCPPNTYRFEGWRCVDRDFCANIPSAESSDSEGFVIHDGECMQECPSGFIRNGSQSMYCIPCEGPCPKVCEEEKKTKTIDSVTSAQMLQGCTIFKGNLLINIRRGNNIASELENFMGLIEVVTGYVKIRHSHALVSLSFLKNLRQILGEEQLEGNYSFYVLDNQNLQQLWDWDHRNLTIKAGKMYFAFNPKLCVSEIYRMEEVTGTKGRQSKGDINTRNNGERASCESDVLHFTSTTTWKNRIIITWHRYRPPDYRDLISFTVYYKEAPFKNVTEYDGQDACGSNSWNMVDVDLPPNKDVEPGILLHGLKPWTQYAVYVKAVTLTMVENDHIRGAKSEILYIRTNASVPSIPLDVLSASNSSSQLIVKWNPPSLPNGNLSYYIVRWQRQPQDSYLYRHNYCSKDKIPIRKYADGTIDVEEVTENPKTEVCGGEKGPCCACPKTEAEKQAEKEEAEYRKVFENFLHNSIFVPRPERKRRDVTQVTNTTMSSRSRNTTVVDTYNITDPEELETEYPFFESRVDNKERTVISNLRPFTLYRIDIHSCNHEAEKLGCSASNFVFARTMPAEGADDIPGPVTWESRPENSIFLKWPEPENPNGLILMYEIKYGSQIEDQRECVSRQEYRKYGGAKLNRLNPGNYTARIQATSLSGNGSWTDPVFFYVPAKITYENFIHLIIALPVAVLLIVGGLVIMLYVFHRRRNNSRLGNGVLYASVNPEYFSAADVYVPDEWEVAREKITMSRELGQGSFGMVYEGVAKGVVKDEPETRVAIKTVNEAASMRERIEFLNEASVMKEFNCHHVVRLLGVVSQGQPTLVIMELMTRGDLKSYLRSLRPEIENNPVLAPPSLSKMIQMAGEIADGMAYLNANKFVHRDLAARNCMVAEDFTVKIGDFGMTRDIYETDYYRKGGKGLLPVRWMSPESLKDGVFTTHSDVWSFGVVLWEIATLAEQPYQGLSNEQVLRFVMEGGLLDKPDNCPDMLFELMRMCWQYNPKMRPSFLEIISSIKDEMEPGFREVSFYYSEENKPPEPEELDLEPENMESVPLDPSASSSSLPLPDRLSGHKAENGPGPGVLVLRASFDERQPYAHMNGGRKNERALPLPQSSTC
Chain of Rhesus IGF-IR (alpha, as listed by the source limits assumed, chain 1 of 2): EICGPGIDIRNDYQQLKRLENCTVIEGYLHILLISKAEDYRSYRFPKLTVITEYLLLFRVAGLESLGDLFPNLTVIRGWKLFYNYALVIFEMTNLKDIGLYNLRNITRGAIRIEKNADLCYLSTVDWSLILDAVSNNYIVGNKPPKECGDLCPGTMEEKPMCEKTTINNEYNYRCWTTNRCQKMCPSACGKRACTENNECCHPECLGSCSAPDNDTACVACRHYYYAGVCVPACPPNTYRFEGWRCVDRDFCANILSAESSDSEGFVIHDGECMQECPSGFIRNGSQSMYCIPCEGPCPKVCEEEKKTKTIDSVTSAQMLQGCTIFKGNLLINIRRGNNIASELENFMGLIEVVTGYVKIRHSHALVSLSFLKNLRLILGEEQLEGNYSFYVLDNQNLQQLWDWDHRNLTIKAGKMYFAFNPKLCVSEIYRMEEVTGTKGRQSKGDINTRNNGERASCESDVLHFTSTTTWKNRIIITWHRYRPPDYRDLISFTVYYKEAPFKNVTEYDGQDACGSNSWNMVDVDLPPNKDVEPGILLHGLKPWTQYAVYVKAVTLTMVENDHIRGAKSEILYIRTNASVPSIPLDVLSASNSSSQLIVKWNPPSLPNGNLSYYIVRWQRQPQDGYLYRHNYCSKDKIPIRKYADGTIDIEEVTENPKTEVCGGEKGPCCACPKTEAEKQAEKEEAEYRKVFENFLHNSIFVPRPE
Chain of Rhesus IGF-IR (beta, as listed by the source limits assumed, chain 2 of 2): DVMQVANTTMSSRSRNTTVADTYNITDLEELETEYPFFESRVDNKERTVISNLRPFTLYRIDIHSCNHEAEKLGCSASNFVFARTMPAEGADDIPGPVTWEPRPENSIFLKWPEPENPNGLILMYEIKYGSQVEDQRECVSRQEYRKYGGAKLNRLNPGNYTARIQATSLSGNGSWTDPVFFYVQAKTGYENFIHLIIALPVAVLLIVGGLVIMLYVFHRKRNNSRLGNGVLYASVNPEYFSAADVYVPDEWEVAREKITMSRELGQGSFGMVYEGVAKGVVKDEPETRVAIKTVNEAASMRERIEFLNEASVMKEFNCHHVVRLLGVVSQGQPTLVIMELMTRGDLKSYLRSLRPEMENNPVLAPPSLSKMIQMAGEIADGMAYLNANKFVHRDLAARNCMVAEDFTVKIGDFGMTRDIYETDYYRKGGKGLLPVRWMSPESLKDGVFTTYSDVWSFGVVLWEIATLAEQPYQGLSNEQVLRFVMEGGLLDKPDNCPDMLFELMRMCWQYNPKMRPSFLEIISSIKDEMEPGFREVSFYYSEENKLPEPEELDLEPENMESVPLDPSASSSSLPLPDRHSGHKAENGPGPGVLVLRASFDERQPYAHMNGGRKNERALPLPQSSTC

B2: anti-IGF-IR antibody 2.13.2 (antibody, V domains shown)
VH: EVQLLESGGGLVQPGGSLRLSCTASGFTFSSYAMNWVRQAPGKGLEWVSAISGSGGTTFYADSVKGRFTISRDNSRTTLYLQMNSLRAEDTAVYYCAKDLGWSDSYYYYYGMDVWGQGTTVTVSS
VL: DIQMTQFPSSLSASVGDRVTITCRASQGIRNDLGWYQQKPGKAPKRLIYAASRLHRGVPSRFSGSGSGTEFTLTISSLQPEDFATYYCLQHNSYPCSFGQGTKLEIKR
notes: Fully human IgG2 kappa from a XenoMouse hybridoma; Biotinylated in the FACS assay
IC50 of inhibition of IGF-I-induced phosphorylation of IGF-IR (immunoprecipitation, Western blot with HRP-PY54) (COS7 IGF-IR): 0.02 µg/mL
IC50 of inhibition of IGF-I-induced phosphorylation of IGF-IR (immunoprecipitation, Western blot with HRP-PY54) (Rhesus IGF-IR): 0.005 µg/mL
IC50 of inhibition of IGF-I-induced tyrosine phosphorylation of IGF-IR (ELISA, IGF-IR-transfected NIH-3T3 cells) (human IGF-IR on cells [1]): 0.0812 µg/mL
binding result (canine IGF-IR): no binding (tested: 1 µg/ml)
binding result (guinea pig IGF-IR): no binding (tested: 1 µg/ml)
binding result (rabbit IGF-IR): no binding (tested: 1 µg/ml)
IC50 (human IGF-IR on cells [2]): 0.18 µg/mL
Kd (cynomologous IGF-IR): 0.1 µg/mL

B4: anti-IGF-IR antibody 2.14.3 (antibody, human IgG2, V domains shown)
VH: GPGLVKPSETLSLTCTVSGGSISNYYWSWIRQPAGKGLEWIGRIYTSGSPNYNPSLKSRVTMSVDTSKNQFSLKLNSVTAADTAVYYCAVTIFGVVIIFDYWGQGTLVTVSS
VL: SSLSASVGDRVTFTCRASQDIRRDLGWYQQKPGKAPKRLIYAASRLQSGVPSRFSGSGSGTEFTLTISSLQPEDFATYYCLQHNNYPRTFGQGTEVEIIR
IC50 of inhibition of IGF-I-induced tyrosine phosphorylation of IGF-IR (ELISA, IGF-IR-transfected NIH-3T3 cells) (human IGF-IR on cells [1]): 0.325 µg/mL

Second part, the binder after the results:

IC50 of inhibition of IGF-I-induced tyrosine phosphorylation of IGF-IR (ELISA, IGF-IR-transfected NIH-3T3 cells) (human IGF-IR on cells [1]): 0.172 µg/mL
binding result (canine IGF-IR): no binding (tested: 1 µg/ml)
binding result (guinea pig IGF-IR): no binding (tested: 1 µg/ml)
binding result (rabbit IGF-IR): no binding (tested: 1 µg/ml)
IC50 (human IGF-IR on cells [2]): 0.45 µg/mL
B1: anti-IGF-IR antibody 2.12.1 (antibody, V domains shown)
VH: QAQLVESGGGLVKPGGSLRLSCAASGFTFSDYYMSWIRQAPGKGLEWVSYISSSGSTRDYADSVKGRFTISRDNAKNSLYLQMNSLRAEDTAVYYCVRDGVETTFYYYYYGMDVWGQGTTVTVSS
VL: DIQMTQSPSSLSASVGDRVTFTCRASQDIRRDLGWYQQKPGKAPKRLIYAASRLQSGVPSRFSGSGSGTEFTLTISSLQPEDFATYYCLQHNNYPRTFGQGTEVEIIR
notes: as for B2

IC50 of inhibition of IGF-I-induced phosphorylation of IGF-IR (immunoprecipitation, Western blot with HRP-PY54) (COS7 IGF-IR): 0.02 µg/mL
IC50 of inhibition of IGF-I-induced phosphorylation of IGF-IR (immunoprecipitation, Western blot with HRP-PY54) (Rhesus IGF-IR): 0.005 µg/mL
IC50 of inhibition of IGF-I-induced tyrosine phosphorylation of IGF-IR (ELISA, IGF-IR-transfected NIH-3T3 cells) (human IGF-IR on cells [1]): 0.0324 µg/mL
binding result (canine IGF-IR): no binding (tested: 1 µg/ml)
binding result (guinea pig IGF-IR): no binding (tested: 1 µg/ml)
binding result (rabbit IGF-IR): no binding (tested: 1 µg/ml)
IC50 (human IGF-IR on cells [2]): 0.1 µg/mL
Kd (cynomologous IGF-IR): 0.1 µg/mL
B3: anti-IGF-IR antibody 4.9.2 (antibody, human IgG2, V domains shown)
VH: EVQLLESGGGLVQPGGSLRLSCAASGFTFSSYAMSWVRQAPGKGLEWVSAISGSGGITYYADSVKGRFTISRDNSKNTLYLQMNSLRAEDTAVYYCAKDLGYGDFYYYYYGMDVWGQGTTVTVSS
VL: DIQMTQSPSSLSASVGDRVTITCRASQGIRSDLGWFQQKPGKAPKRLIYAASKLHRGVPSRFSGSGSGTEFTLTISRLQPEDFATYYCLQHNSYPLTFGGGTKVEIK
notes: Human IgG2 kappa; Biotinylated in the FACS assay
